In IntAct's records for PubMed 19412162:

Biological target: fbx31_human FBXO31 (UniProt Q5XUX0)
Chain of UniProt Q5XUX0 (Q5XUX0 whole entry): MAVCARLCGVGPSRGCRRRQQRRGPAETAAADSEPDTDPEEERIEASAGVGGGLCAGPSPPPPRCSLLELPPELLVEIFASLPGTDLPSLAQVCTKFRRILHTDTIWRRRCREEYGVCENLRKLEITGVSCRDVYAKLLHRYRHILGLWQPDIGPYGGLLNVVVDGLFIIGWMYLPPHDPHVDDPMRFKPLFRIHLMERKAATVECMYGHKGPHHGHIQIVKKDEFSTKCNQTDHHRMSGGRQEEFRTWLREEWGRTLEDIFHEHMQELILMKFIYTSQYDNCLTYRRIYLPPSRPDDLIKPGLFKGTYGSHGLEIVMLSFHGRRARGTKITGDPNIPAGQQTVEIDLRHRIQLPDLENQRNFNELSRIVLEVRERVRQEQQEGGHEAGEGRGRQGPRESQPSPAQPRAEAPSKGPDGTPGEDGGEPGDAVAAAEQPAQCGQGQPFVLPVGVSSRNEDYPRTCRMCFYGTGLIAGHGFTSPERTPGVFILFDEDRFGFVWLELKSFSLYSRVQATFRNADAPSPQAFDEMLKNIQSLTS

## Serine-protein kinase ATM (Homo sapiens), Q13315 D2870A;N2875K
  effect of a mutation on the interaction: disrupting interaction
